Molecular target: T1, mBDNF (成熟脑源性神经营养因子, mature brain-derived neurotrophic factor) (Helarctos malayanus (Malayan sun bear) (Ursus malayanus)) (UniProt O18753)
T1 sequence: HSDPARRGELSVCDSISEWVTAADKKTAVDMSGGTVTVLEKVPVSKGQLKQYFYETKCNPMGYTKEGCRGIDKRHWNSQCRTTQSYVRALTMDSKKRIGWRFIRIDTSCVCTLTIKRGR
Assay: ELISA; antigen coated on the plate, purified antibody added, secondary antibody, TMB, OD450

lowest antigen concentration at which the antigen was detected: 1.95 ng/mL
B1: 抗mBDNF抗体 (anti-mature brain-derived neurotrophic factor antibody) (antibody, V domains shown)
VH: EVKLEESGGGLVQPGGSMKLSCVASGFTFNNYWMNWVRQSPGKGLEWVAQIRLDSDNYATHYAESVIGRFTISSDDSKSSVYLQMNNLRAEDTGIYYCTAFDYAMDYWGQGTSVTVSS
VL: DIVMTQSHKFMSTSVGDRVSITCKASQDVGSAVAWYQQKPGQSPKLLIYWASTRHTGVPNRFTGSGSGTDFTLTISNVHSEDLADYFCQQYSSYPLTFGSRTKLEIK

From patent CN112646029A
